Reference: the supplement of paper PMC9170038

Tests used:
[1] = test system: MS2 coat protein; test: apparent KD of MS2 coat protein, switch ON state; designed switch direction (-1 OFF switch, 1 ON switch): -1; higher = weaker reporter binding; conditions: FMN input: 0 or 200 uM; Eterna round: R93 (includes R88 designs)
Method in brief: (§1)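 Normalised binding curves from single clusters were fitted, and the median fit for each design is given as apparent KD. The clusters held designed RNA switches transcribed on-chip from Illumina sequencing clusters. These were titrated with SNAP-549-labelled MS2 coat protein (twofold steps from 0.7 or 1.5 nM to 3 µM, 0.8–1.5 h to 10–20 min per step) in 100 mM Tris-HCl pH 7.5, 80 mM KCl, 4 mM MgCl2, without or with constant ligand.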

[2] = test system: MS2 coat protein; test: apparent KD of MS2 coat protein, switch OFF state (with FMN for OFF switches, without FMN for ON switches); designed switch direction (-1 OFF switch, 1 ON switch): -1; higher = weaker reporter binding; conditions: FMN input: 0 or 200 uM; Eterna round: R93 (includes R88 designs)
Method in brief: as §1

| Sequence | apparent KD of MS2 coat protein [1] | apparent KD of MS2 coat protein [2] |
| --- | --- | --- |
| AAGAAGUGAGGAUAUGCUGACAAUAUGAAGACUUGAGGUAUGCAGAAGGCACAUGAGGAUCACCCAUGUAAGAA [JR_Exclusion4_Sub4] | 27.4 nM | 23.6 nM |
| GAAGUACGAGGAUAUACAUAGAUACAGAUACAUGUAGACGUACAUGAGGAUCACCCAUGUAGAAGGCGUACAAG [Mat - Same state - Mayanna Mod - D117] | 137 nM | 129 nM |
| GGGUCACAUGAGGAUCACCCAUGUAAGGAUAUGCUAGGGAUGGAAACCAUUACGCAACGCAGAAGGUACUAAAG [Janelle Amethyst 18 Mod 11 - Jieux - Exclusion 1] | 40.3 nM | 59 nM |
| AAAAAACAUGAGGAUCACCCAUGUAAGGAUAUGCCUAAAAAAAAAAAAAAAAAAAAUGGCAGAAGGUGCAAAAA [excalibur15] | 41.6 nM | 35.4 nM |
| AACUGACAUGAGGAUCACCCAUGUCAGGAUAUGAUAUGUAAAAAAAAAAAAAUACUUAUCAGAAGGGACAUGGA [Design 42: Sub-opt BB] | 22.8 nM | 30 nM |
| UUUAUGUGAGGAUAUACGAAUAGUAAGUAAGUCUUACAGACGUAGAAGGCACAUGAGGAUCACCCAUGUGAACC [JR_Exc004_Sub309] | 46.4 nM | 277 nM |
| AAAGUGUAAGGAUAUCUGAAAGGACACGAAAGUGACAAAGAAGAGAAGGUACAUGAGGAUCACCCAUGUAAAAA [milkweed 21] | 28.7 nM | 18.1 nM |
| GAAAAGUUAGGAUAUACAGAUAAAAAAACGAAAAAAAAUCUGUAGAAGGAACAUGAGGAUCACCCAUGUAAAAA [Mat - Exclusion 4 - Mayanna - D104] | 30.7 nM | 15.5 nM |
| AAAAAGUGAGGAUAUACGGUGUGGAGUAGACACAACCAGGCGUAGAAGGCACAUGAGGAUCACCCAUGUCCAAA [EX4 Malc#15] | 25.9 nM | 29.1 nM |
| AAAAAGUGAGGAUAUACAUGAGGAUCACCCAUGUUAAGGUAAUAUAUAUAUAUAUAUAGUAGAAGGCACAAAAA [Default title] | 32.4 nM | 31.5 nM |
| AAAGGAUCAGGAUAUGUGUGGGAAAAGUGUGUCCAAAAAAAACAUGAGGAUCACCCAUGUAGAAGGGAUCCAAA [Mod 6 of Normal (20/19) by Nando, Round 1] | 487 nM | 265 nM |
| AAAAAGGUAGGAUAUACAUGAGGAUCACCCAUGUAAAAAAAAACAAGAGAAAAAAAAUGUAGAAGGGCCAAAAA [Ex3 Malc#4] | 14.3 nM | 16.9 nM |
| AAAAAGUGAGGAUAUACAUGAGGAUCACCCAUGUUAAAAAAAAAAAAAUAUAAAAAUAGUAGAAGGCACAAAAA [Default title] | 48.8 nM | 41.3 nM |
| AAAUUGUGAGGAUAUCUGGAUAGGAAAAAGAAAACCUAUCCAGAGAAGGCACAUGAGGAUCACCCAUGUAAAAA [JL cataway mod 5] | 61.7 nM | 96.8 nM |
| CUCUUGUCAGGAUAUGGAAGAAAAGAAAAGAAAGAAAAGAACCAGAAGGGACAUGAGGAUCACCCAUGUAAGAA [EteRNA is fun!] | 156 nM | 37.7 nM |
| AAAACGGUAGGAUAUACGAUUUGGAACUAAACCGAGGAACCACAUGAGGAUCACCCAUGUAGAAGGGCCAAAAA [Mat - Exclusion 2 - JL mod - D81] | 18.4 nM | 14.7 nM |
| AAACGUUGAGGAUAUACGAAAAAGGGUAGGUCAAAUAAAACACAUGAGGAUCACCCAUGUAGAAGGCAACGAAA | 333 nM | 3.66 nM |
| AAAAAGUCAGGAUAUACAGAAAAAAAAACGAAAAAAAAUCUGUAGAAGGGACAUGAGGAUCACCCAUGUAAAAA [Ex 4 May 12] | 47.6 nM | 33.6 nM |
| AGCUAGUCAGGAUAUACGAAAAUGUACGAAGCUGAGAAGGGACAUGAGGAUCACCCAUGUAGAAGGGACUAGCA [Diamond 35] | 39.2 nM | 52.5 nM |
